Assay results published in patent US20230054956A1 (VANDERBILT UNIVERSITY, published 2023).

B1: NORO-115 (antibody, V domains shown)
VH: QVQLVESGGGLVKPGGSLRLSCTASGITISGYYMSWIRQAPGKGLEWIVYINTSGRTIYYADSVKGRFSVSRDNAKESLYLQMDSLTVDDTGIYYCARDRLPASGSHWFHPWGQGTLVTVSS
VL: DIVMTQSPDSLAVSLGGRATINCKSSQSVLYTSDNKNYLAWYQQQPGQPPKLLISWASTRESGVPDRFSGSGSGTDFTLTISNLQAEDVAVYYCQQYYNSPLAFGGGTKVEIK
B2: NORO-327A (antibody, V domains shown)
VH: QVQLEVSGGGLVKPGGSLRLSCAASGFTFTDYYMSWIRQAPGKGLEWVAYISGIMSSTKYADSVKGRFTISRDNGKNSVYLQMNSLTAEDTAVYYCARERVEPPSAVTDFWGQGTLVTVSS
VL: QSVLTQSPSVSGAPGQRVTISCTGTSSNIGAGYDVHWYQQFPGTAPKLLISHNTNRPSGVPDRFSGSKSGTSASLAITGLQAEDEADYYCQSFDSSLRGSRVFGGGTKLTVL
notes: human hybridoma mAb; IgG, lambda
B3: NORO-232A.2 (antibody, V domains shown)
VH: QVQLKQWGAGLLKSSETLSLTCAFNGNSFGAFYWSWIRLSPGKGLEWIGEVNYLGGADYNPSLKSRVTMSADTSKRQFSLSLKSVTAADTGVYFCARGRPHDYSPGSYSRPRRYYGLDVWGQGTTVTVSS
VL: EIVLTQSPATLSLSPGDSATLSCRASQAVSTTYLAWYQQTRGQAPRLLIHGTYTRAIGIPDKFSGTGSGTDFTLTISGLAPEDFAVYYCQQYSSSPYTFGQGTKIEIT
notes: human hybridoma mAb; IgA, kappa; in both panels
B4: NORO-246A (antibody, V domains shown)
VH: EVHLVESGGGLVKPGGSLRLSCAASGFTFSRYGMHWVRQAPGKGLEWVSSIVIRSDYKYYADSVKGRFTISRDNAKNSLYLQMNSLRADDTAVYYCARDLVEPGITPVGCDYWGRGTLVTVSS
VL: SNELTQAPSVSVSPGQTARITCFGDALANQYSYWYQRKPGQAPVLVIYKDSERPSGIPQRFSASNSGTTVTLTITGVQAEDEADYFCQSADSTGIYKVFGGGTKLTVL
notes: as for B2
B5: NORO-329A (antibody, V domains shown)
VH: QVQLVESGGGLVKPGGSLRLSCAASGFTFSDYYMSWIRQAPGKGLEWISYISSSFGSTDYAGSMKGRFTISRDNAKNSLYLQMNSLRAEDTAVYYCARYNYYGSGSFVFDYWGQGTLVTVSS
VL: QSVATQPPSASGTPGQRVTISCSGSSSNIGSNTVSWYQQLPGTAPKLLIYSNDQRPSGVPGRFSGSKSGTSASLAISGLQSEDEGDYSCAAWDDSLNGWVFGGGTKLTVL

Legend:
[1] = target: GII.4 Houston 2002 (ABY27560.1) VLPs (human norovirus GII.4 Houston 2002, UniProt P54635 1-539); test: ELISA, VLP
[2] = target: GII.4 Sydney 2012 virus-like particles (VLPs), based on strain AFV08795.1 (human norovirus GII.4 Sydney 2012, UniProt P54635 1-538, The particle is a multimeric assembly of VP1 with a little VP2 inside; one VP1 chain is given.); test: indirect ELISA, VLP coated
[3] = target: T1, GII.4 Sydney 2012 virus-like particles (VLPs), based on strain AFV08795.1 (human norovirus GII.4 Sydney 2012, UniProt P54635 1-538, The particle is a multimeric assembly of VP1 with a little VP2 inside; one VP1 chain is given.); test: indirect ELISA, VLP coated
T1 construct: VLP assembled from VP1 and VP2 in baculovirus/Sf9 cells; also called GII.4 VLPs
T1 chain: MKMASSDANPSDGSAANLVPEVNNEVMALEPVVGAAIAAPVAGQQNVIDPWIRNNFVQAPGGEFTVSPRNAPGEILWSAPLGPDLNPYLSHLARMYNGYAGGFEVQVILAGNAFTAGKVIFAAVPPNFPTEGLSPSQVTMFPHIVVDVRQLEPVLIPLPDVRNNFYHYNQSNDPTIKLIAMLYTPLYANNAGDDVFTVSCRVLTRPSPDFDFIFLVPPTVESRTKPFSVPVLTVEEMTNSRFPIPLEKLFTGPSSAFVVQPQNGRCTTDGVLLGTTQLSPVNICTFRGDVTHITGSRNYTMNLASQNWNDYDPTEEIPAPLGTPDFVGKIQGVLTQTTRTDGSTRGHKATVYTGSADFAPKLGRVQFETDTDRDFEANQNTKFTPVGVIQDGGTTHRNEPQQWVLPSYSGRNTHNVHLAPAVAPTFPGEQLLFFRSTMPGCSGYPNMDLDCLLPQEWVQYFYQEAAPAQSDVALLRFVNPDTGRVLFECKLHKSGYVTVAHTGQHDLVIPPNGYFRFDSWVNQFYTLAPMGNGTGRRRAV

Binder	fold higher binding EC50 than to GII.4 Sydney 2012 VLPs [1]	EC50 [2]	EC50 [3]
B1	> 10 fold	0.1 µg/mL	–
B2	–	–	0.6 µg/mL
B3	–	–	0.3 µg/mL
B4	–	–	0.2 µg/mL
B5	> 10 fold	0.2 µg/mL	–
